B1: FPPPP-mito (EGFP fused to ActA amino acids 231-610, four EVH1-binding FPPPP repeats and the mitochon (other)
chain: VNASDFPPPPTDEELRLALPETPMLLGFNAPATSEPSSFEFPPPPTDEELRLALPETPMLLGFNAPATSEPSSFEFPPPPTEDELEIIRETASSLDSSFTRGDLASLRNAINRHSQNFSDFPPIPTEEELNGRGGRPTSEEFSSLNSGDFTDDENSETTEEEIDRLADLRDRGTGKHSRNAGFLPLNPFASSPVPSLSPKVSKISAPALISDITKKTPFKNPSQPLNVFNKKTTTKTVTKKPTPVKTAPKLAELPATKPQETVLRENKTPFIEKQAETNKQSINMPSLPVIQKEATESDKEEMKPQTEEKMVEESESANNANGKNRSAGIEEGKLIAKSAEDEKAKEEPGNHTTLILAMLAIGVFSLGAFIKIIQLRKNN
notes: not shown: EGFP (enhanced green fluorescent protein, Clontech); the ActA portion is fused to its C-term
B2: VASP (endogenous, in Rat2 fibroblasts) (other)
chain: ETVICSSRATVMLYDDSNKRWLPAGTGPQAFSRVQIYHNPTANSFRVVGRKLQPDQQVVINCAIIRGVKYNQATPIFHQWRDARQVWGLNFGSKEDAAQFAIGMANALEALEGGGPPPAPAPPAWSTQNGPSPEELEQQKRQPEHLERRVSNAGGPPAPPAGGPPPPPGPPPPPGPPPPPGLPPSGVSGAGHGTGVAPPPAPPLPTAQGPSSGGSGAPGLAAAIAGAKLRKVSKEEASGGPLAPKAENSRGTGGGLMEEMNAMLARRRKATQVGEKPPKDESASQEESEARIPAQSEPVRRPWEKNSTTLPRMKSSSSVTTSEAHPSVPSSSDDSDLERVKQELVEEVRKELQKMKEEIIEVFVQELRKRGSP
notes: whole, on cells; also called vasodilator-stimulated phosphoprotein
B3: FPPPP-cyto (EGFP fused to ActA amino acids 231-360, without the mitochondrial targeting sequence) (other)
chain: VNASDFPPPPTDEELRLALPETPMLLGFNAPATSEPSSFEFPPPPTDEELRLALPETPMLLGFNAPATSEPSSFEFPPPPTEDELEIIRETASSLDSSFTRGDLASLRNAINRHSQNFSDFPPIPTEEEL
notes: not shown: EGFP (enhanced green fluorescent protein, Clontech)

Experiment [1] addresses T1, vinculin (endogenous, in Rat2 fibroblasts) (rat (Rat2 fibroblasts), UniProt P85972 1-1066).
T1 construct: whole, on cells
T1 sequence: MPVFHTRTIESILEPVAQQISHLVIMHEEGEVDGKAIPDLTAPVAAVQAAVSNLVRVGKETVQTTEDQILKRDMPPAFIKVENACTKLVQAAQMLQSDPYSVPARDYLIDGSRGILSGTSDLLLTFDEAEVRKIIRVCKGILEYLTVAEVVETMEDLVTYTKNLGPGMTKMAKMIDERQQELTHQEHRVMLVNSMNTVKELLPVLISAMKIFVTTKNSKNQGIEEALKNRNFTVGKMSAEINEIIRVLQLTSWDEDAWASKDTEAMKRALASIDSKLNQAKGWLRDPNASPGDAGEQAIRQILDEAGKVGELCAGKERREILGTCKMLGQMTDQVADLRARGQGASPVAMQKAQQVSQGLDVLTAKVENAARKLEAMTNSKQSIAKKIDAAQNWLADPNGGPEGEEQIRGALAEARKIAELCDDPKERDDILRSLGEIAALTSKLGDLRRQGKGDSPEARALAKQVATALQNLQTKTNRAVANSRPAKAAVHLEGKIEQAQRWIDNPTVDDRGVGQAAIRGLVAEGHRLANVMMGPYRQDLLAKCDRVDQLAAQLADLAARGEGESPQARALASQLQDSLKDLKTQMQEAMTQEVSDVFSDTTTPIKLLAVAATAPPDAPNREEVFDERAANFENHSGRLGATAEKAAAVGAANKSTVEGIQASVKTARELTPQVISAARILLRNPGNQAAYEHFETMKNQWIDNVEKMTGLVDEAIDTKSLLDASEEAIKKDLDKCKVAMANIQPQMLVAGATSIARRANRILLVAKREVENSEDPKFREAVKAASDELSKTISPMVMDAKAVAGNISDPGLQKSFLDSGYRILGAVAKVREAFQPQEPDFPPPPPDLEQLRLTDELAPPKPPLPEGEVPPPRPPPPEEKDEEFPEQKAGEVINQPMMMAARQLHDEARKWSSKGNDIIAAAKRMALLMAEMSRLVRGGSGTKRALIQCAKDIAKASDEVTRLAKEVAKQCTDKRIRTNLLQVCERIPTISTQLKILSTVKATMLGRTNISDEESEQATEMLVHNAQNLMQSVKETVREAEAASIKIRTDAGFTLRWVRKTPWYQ
Put plainly: immunofluorescence in FPPPP-mito Rat2 cells.

The target of experiment [2] is T2, p34 component of the Arp2/3 complex (endogenous, in Rat2 fibroblasts) (rat (Rat2 fibroblasts), UniProt P85970 1-300).
T2 construct: whole, on cells
Briefly: immunofluorescence in FPPPP-mito Rat2 cells.

For experiment [3], the target named is B1. Put plainly: immunofluorescence co-localisation in Rat2 cells expressing the construct.
In experiment [4] the target is B2. Briefly: immunofluorescence in Rat2 cells expressing the construct.

These results are taken from US6716597 (MIT, dated 2004).

For the molecule B1, the binding result in experiment [1] and in experiment [2] was “no binding” in each case.
B2: the binding result in experiment [3] is given as “binds”.
For B3, the binding result in experiment [4] was “binds”.
